What was measured:
PTBP1 (GST-SBP-PTBP1) [1] = target: T1, PTBP1 (GST-SBP-PTBP1) (UniProt P26599-1 1-531); assay: fluorescence polarization
PTBP1 (GST-SBP-PTBP1) [2] = target: T1, PTBP1 (GST-SBP-PTBP1); assay: bead pull-down with RT-qPCR

| Binder | Kd (PTBP1 (GST-SBP-PTBP1) [1]) [nM] | binding result (PTBP1 (GST-SBP-PTBP1) [2]) |
| --- | --- | --- |
| AUCUCUUGAUGCUAUCC (ssRNA) [Capzb exon oligo] | ~6 |  |
| CUUUCUCUCAAGCU (ssRNA) [Fnbp1 exon oligo] | ~8 |  |
| Capzb intron WT transcript with adapters (ssRNA) RNA: AGUUGUACAGUCCGACGAUGCGGUGGCCUUCUCCUGUCUCUGCCUUUGCCCACGGCUGCCAGGUUCUUGUUCGGCAUUGCUGUUGCUCUCUUGCUGUGGCUUCACCCUCUCUGAACACUCUCUGUAGUGCAGUCGUCGAGUGUCAACG |  | binds |
| CUCUCUCUCUCUCUCUC (ssRNA) [Fnbp1 intron oligo] | ~2 |  |
| CUCUCUGAACACUCUCU (ssRNA) [Capzb intron oligo] | ~3 |  |
